Experimental data as given in patent US20050186604A1.

Target: Myc transcription factor (UniProt P01106)
Test: cell-based or functional assay

Sequence of HTLV-1 p30^II (HA) (P0C214 whole entry): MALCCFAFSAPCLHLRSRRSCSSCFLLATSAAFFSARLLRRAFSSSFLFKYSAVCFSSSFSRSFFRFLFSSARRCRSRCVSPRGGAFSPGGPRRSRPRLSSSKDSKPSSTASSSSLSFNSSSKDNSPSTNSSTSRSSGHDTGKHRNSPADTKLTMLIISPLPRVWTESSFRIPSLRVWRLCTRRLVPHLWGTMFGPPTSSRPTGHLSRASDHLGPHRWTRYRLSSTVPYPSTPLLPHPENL
Sequence of UniProt P01106 (P01106 16-454 limits assumed): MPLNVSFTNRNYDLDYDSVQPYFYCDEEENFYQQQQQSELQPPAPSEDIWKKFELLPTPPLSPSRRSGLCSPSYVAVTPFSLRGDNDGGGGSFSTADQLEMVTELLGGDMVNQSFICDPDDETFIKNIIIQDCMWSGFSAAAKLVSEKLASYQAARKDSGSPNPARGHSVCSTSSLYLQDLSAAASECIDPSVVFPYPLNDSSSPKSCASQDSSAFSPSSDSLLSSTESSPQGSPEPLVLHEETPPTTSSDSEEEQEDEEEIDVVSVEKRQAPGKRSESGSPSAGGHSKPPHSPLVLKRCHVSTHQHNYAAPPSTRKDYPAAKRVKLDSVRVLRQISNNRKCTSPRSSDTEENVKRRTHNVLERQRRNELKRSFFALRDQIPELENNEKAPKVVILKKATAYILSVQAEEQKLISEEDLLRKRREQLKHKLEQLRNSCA

## HTLV-1 p30^II (HA)
  trans-activation from the synthetic M4-tk-luc promoter (luciferase reporter, four tandem E-boxes): 13 fold
  trans-activation from the synthetic M4-tk-luc promoter (luciferase reporter, four tandem E-boxes), higher p30^II concentrations: 5 to 7 fold
